By Kd is commonly meant a measure of binding affinity in units of concentration. A lower Kd goes with a tighter complex. What is called koff is the rate constant with which the complex falls apart. Low values mean slow dissociation, high ones fast dissociation. The kon is the second-order rate constant of association. A low value points to slow association.

T1: human CD19 antigen (human, UniProt P15391 20-291, limits assumed)
T1 sequence (looked up): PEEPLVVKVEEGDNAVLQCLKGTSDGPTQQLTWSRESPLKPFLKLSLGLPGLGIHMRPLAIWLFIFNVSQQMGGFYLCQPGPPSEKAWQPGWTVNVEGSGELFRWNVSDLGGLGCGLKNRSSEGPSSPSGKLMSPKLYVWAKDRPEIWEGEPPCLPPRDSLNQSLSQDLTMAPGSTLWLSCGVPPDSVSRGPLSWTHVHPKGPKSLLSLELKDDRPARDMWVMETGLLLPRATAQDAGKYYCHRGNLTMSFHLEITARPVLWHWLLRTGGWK

B1: humanized CD19 antibody VH3 + VL2 (antibody, V domains shown)
VH: QVQLQESGPGLVKPSQTLSLTCTVSGVSLPDYGVSWIRQPPGKGLEWIGVIWGSETTYYNSALKSRLTISKDTSKNQVSLKLSSVTAADTAVYYCAKHYYYGGSYAMDYWGQGTTVTVSS
VL: DIQMTQSPSSLSASVGDRVTITCRASQDISKYLNWYQQKPGKAPKLLIYHTSRLHSGVPSRFSGSGSGTDYTFTISSLQPEDIATYYCQQGNTLPYTFGGGTKLEIK
notes: also called Antibody No. 8
B2: humanized CD19 antibody VH1 + VL1 (antibody, V domains shown)
VH: QVQLQESGPGLVKPSQTLSLTCTVSGVSLPDYGVSWIRQPPGKGLEWIGVIWGSETTYYNSALKSRVTISVDTSKNQFSLKLSSVTAADTAVYYCARHYYYGGSYAMDYWGQGTTVTVSS
VL: DIQMTQSPSSLSASVGDRVTITCRASQDISKYLNWYQQKPGKAPKLLIYHTSRLHSGVPSRFSGSGSGTDFTFTISSLQPEDIATYYCQQGNTLPYTFGGGTKLEIK
notes: also called Antibody No. 1
B3: humanized CD19 antibody VH3 + VL1 (antibody, V domains shown)
VH: QVQLQESGPGLVKPSQTLSLTCTVSGVSLPDYGVSWIRQPPGKGLEWIGVIWGSETTYYNSALKSRLTISKDTSKNQVSLKLSSVTAADTAVYYCAKHYYYGGSYAMDYWGQGTTVTVSS
VL: DIQMTQSPSSLSASVGDRVTITCRASQDISKYLNWYQQKPGKAPKLLIYHTSRLHSGVPSRFSGSGSGTDFTFTISSLQPEDIATYYCQQGNTLPYTFGGGTKLEIK
notes: also called Antibody No. 7
B4: humanized CD19 antibody VH5 + VL2 (antibody, V domains shown)
VH: QVQLQESGPGLVKPSQTLSVTCTVSGVSLPDYGVSWIRQPPGKGLEWLGVIWGSETTYYNSALKSRLTISKDTSKNQVSLKLSSLTAADTAVYYCAKHYYYGGSYAMDYWGQGTTVTVSS
VL: DIQMTQSPSSLSASVGDRVTITCRASQDISKYLNWYQQKPGKAPKLLIYHTSRLHSGVPSRFSGSGSGTDYTFTISSLQPEDIATYYCQQGNTLPYTFGGGTKLEIK
notes: also called Antibody No. 14
B5: humanized CD19 antibody VH4 + VL1 (antibody, V domains shown)
VH: QVQLQESGPGLVKPSQTLSLTCTVSGVSLPDYGVSWIRQPPGKGLEWLGVIWGSETTYYNSALKSRLTISKDTSKNQVSLKLSSVTAADTAVYYCAKHYYYGGSYAMDYWGQGTTVTVSS
VL: DIQMTQSPSSLSASVGDRVTITCRASQDISKYLNWYQQKPGKAPKLLIYHTSRLHSGVPSRFSGSGSGTDFTFTISSLQPEDIATYYCQQGNTLPYTFGGGTKLEIK
notes: also called Antibody No. 10
B6: humanized CD19 antibody VH1 + VL3 (antibody, V domains shown)
VH: QVQLQESGPGLVKPSQTLSLTCTVSGVSLPDYGVSWIRQPPGKGLEWIGVIWGSETTYYNSALKSRVTISVDTSKNQFSLKLSSVTAADTAVYYCARHYYYGGSYAMDYWGQGTTVTVSS
VL: DIQMTQSPSSLSASVGDRVTITCRASQDISKYLNWYQQKPGKAPKLLIYHTSRLHSGVPSRFSGSGSGTDYTLTISSLQPEDIATYYCQQGNTLPYTFGGGTKLEIK
notes: also called Antibody No. 3
B7: humanized CD19 antibody VH2 + VL1 (antibody, V domains shown)
VH: QVQLQESGPGLVKPSQTLSLTCTVSGVSLPDYGVSWIRQPPGKGLEWIGVIWGSETTYYNSALKSRVTISKDTSKNQVSLKLSSVTAADTAVYYCAKHYYYGGSYAMDYWGQGTTVTVSS
VL: DIQMTQSPSSLSASVGDRVTITCRASQDISKYLNWYQQKPGKAPKLLIYHTSRLHSGVPSRFSGSGSGTDFTFTISSLQPEDIATYYCQQGNTLPYTFGGGTKLEIK
notes: also called Antibody No. 4
B8: humanized CD19 antibody VH5 + VL3 (antibody, V domains shown)
VH: QVQLQESGPGLVKPSQTLSVTCTVSGVSLPDYGVSWIRQPPGKGLEWLGVIWGSETTYYNSALKSRLTISKDTSKNQVSLKLSSLTAADTAVYYCAKHYYYGGSYAMDYWGQGTTVTVSS
VL: DIQMTQSPSSLSASVGDRVTITCRASQDISKYLNWYQQKPGKAPKLLIYHTSRLHSGVPSRFSGSGSGTDYTLTISSLQPEDIATYYCQQGNTLPYTFGGGTKLEIK
notes: also called Antibody No. 15
B9: humanized CD19 antibody VH2 + VL2 (antibody, V domains shown)
VH: QVQLQESGPGLVKPSQTLSLTCTVSGVSLPDYGVSWIRQPPGKGLEWIGVIWGSETTYYNSALKSRVTISKDTSKNQVSLKLSSVTAADTAVYYCAKHYYYGGSYAMDYWGQGTTVTVSS
VL: DIQMTQSPSSLSASVGDRVTITCRASQDISKYLNWYQQKPGKAPKLLIYHTSRLHSGVPSRFSGSGSGTDYTFTISSLQPEDIATYYCQQGNTLPYTFGGGTKLEIK
notes: also called Antibody No. 5
B10: humanized CD19 antibody VH3 + VL3 (antibody, V domains shown)
VH: QVQLQESGPGLVKPSQTLSLTCTVSGVSLPDYGVSWIRQPPGKGLEWIGVIWGSETTYYNSALKSRLTISKDTSKNQVSLKLSSVTAADTAVYYCAKHYYYGGSYAMDYWGQGTTVTVSS
VL: DIQMTQSPSSLSASVGDRVTITCRASQDISKYLNWYQQKPGKAPKLLIYHTSRLHSGVPSRFSGSGSGTDYTLTISSLQPEDIATYYCQQGNTLPYTFGGGTKLEIK
notes: also called Antibody No. 9
B11: humanized CD19 antibody VH4 + VL3 (antibody, V domains shown)
VH: QVQLQESGPGLVKPSQTLSLTCTVSGVSLPDYGVSWIRQPPGKGLEWLGVIWGSETTYYNSALKSRLTISKDTSKNQVSLKLSSVTAADTAVYYCAKHYYYGGSYAMDYWGQGTTVTVSS
VL: DIQMTQSPSSLSASVGDRVTITCRASQDISKYLNWYQQKPGKAPKLLIYHTSRLHSGVPSRFSGSGSGTDYTLTISSLQPEDIATYYCQQGNTLPYTFGGGTKLEIK
notes: also called Antibody No. 12
B12: humanized CD19 antibody VH6 + VL4 (antibody, V domains shown)
VH: QVQLQESGPGLVKPSQTLSVTCTVSGVSLPDYGVSWIRQPPGKGLEWLGVIWGSETTYYNAALKSRLTISKDTSKNQVSLKLSSLTAADTAVYYCAKHYYYGGSYAMDYWGQGTTVTVSS
VL: DIQMTQSPSSLSASVGDRVTITCRASQDISKYLNWYQQKPGKAPKLLIYHTSRLHSGVPSRFSGSGSGTDYTLTISSLQPEDIATYYCQQANTLPYTFGGGTKLEIK
notes: also called Antibody No. 16
B13: humanized CD19 antibody VH5 + VL1 (antibody, V domains shown)
VH: QVQLQESGPGLVKPSQTLSVTCTVSGVSLPDYGVSWIRQPPGKGLEWLGVIWGSETTYYNSALKSRLTISKDTSKNQVSLKLSSLTAADTAVYYCAKHYYYGGSYAMDYWGQGTTVTVSS
VL: DIQMTQSPSSLSASVGDRVTITCRASQDISKYLNWYQQKPGKAPKLLIYHTSRLHSGVPSRFSGSGSGTDFTFTISSLQPEDIATYYCQQGNTLPYTFGGGTKLEIK
notes: also called Antibody No. 13
B14: humanized CD19 antibody VH1 + VL2 (antibody, V domains shown)
VH: QVQLQESGPGLVKPSQTLSLTCTVSGVSLPDYGVSWIRQPPGKGLEWIGVIWGSETTYYNSALKSRVTISVDTSKNQFSLKLSSVTAADTAVYYCARHYYYGGSYAMDYWGQGTTVTVSS
VL: DIQMTQSPSSLSASVGDRVTITCRASQDISKYLNWYQQKPGKAPKLLIYHTSRLHSGVPSRFSGSGSGTDYTFTISSLQPEDIATYYCQQGNTLPYTFGGGTKLEIK
notes: also called Antibody No. 2
B15: humanized CD19 antibody VH2 + VL3 (antibody, V domains shown)
VH: QVQLQESGPGLVKPSQTLSLTCTVSGVSLPDYGVSWIRQPPGKGLEWIGVIWGSETTYYNSALKSRVTISKDTSKNQVSLKLSSVTAADTAVYYCAKHYYYGGSYAMDYWGQGTTVTVSS
VL: DIQMTQSPSSLSASVGDRVTITCRASQDISKYLNWYQQKPGKAPKLLIYHTSRLHSGVPSRFSGSGSGTDYTLTISSLQPEDIATYYCQQGNTLPYTFGGGTKLEIK
notes: also called Antibody No. 6
B16: humanized CD19 antibody VH4 + VL2 (antibody, V domains shown)
VH: QVQLQESGPGLVKPSQTLSLTCTVSGVSLPDYGVSWIRQPPGKGLEWLGVIWGSETTYYNSALKSRLTISKDTSKNQVSLKLSSVTAADTAVYYCAKHYYYGGSYAMDYWGQGTTVTVSS
VL: DIQMTQSPSSLSASVGDRVTITCRASQDISKYLNWYQQKPGKAPKLLIYHTSRLHSGVPSRFSGSGSGTDYTFTISSLQPEDIATYYCQQGNTLPYTFGGGTKLEIK
notes: also called Antibody No. 11
B17: humanized CD19 antibody VH2 + VL7 (antibody, V domains shown)
VH: QVQLQESGPGLVKPSQTLSLTCTVSGVSLPDYGVSWIRQPPGKGLEWIGVIWGSETTYYNSALKSRVTISKDTSKNQVSLKLSSVTAADTAVYYCAKHYYYGGSYAMDYWGQGTTVTVSS
VL: DIQMTQSPSSLSASVGDRVTISCRASQDISKYLNWYQQKPDGTVKLLIYHTSRLHSGVPSRFSGSGSGTDFTFTISSLQPEDIATYFCQQGNTLPYTFGGGTKLEIK
B18: humanized CD19 antibody VH2 + VL6 (antibody, V domains shown)
VH: QVQLQESGPGLVKPSQTLSLTCTVSGVSLPDYGVSWIRQPPGKGLEWIGVIWGSETTYYNSALKSRVTISKDTSKNQVSLKLSSVTAADTAVYYCAKHYYYGGSYAMDYWGQGTTVTVSS
VL: DIQMTQSPSSLSASVGDRVTITCRASQDISKYLNWYQQKPGGAVKLLIYHTSRLHSGVPSRFSGSGSGTDYTFTISSLQPEDIATYFCQQGNTLPYTFGGGTKLEIK

One test has as its target T1, human CD19 antigen. Nature of the test: SPR (Biacore), antibody captured via Fc. How it is done:
Part of the antibodies in Example 1 were tested for affinity, and the composition of the heavy chain variable regions and the light chain variable regions of the antibodies to be tested are shown in Table 1.
(§1) HEK293 cells were used to express the antibodies to be tested and Protein A was used for purification. The surface plasmon resonance technique (SPR) was used for determination, and the Fc capture method was used for antibody fixation.
Molecule B1 yielded a Kd of 109 nM and a koff of 0.000638 s⁻¹.
B2 returned a Kd of 57.6 nM and a koff of 0.00808 s⁻¹.
Molecule B3 registered a Kd of 111 nM and a koff of 0.000688 s⁻¹.
For B4 the same measures were 14.8 nM and 0.0018 s⁻¹.
For B5 the same measures were 81 nM and 0.000584 s⁻¹.
Molecule B6 registered a Kd of 40.7 nM and a koff of 0.0794 s⁻¹.
The molecule B7 registered a Kd of 69.8 nM and a koff of 0.000568 s⁻¹.
For B8 the same measures were 14.2 nM and 0.00143 s⁻¹.
For B9 the same measures were 66.8 nM and 0.000526 s⁻¹.
The corresponding values for B10 are 15.8 nM and 0.00159 s⁻¹.
Consider B11, for which binding was characterised by a dissociation constant (Kd) of 56.1 nM and the koff was 0.000437 s⁻¹.
For B12 the same measures were 21000 nM and 0.00493 s⁻¹.
The molecule B13 came in with a Kd of 99.7 nM and a koff of 0.000637 s⁻¹.
For B14 the same measures were 7.95 nM and 0.00738 s⁻¹.
The corresponding values for B15 are 44.7 nM and 0.000395 s⁻¹.
In turn, B16 returned a Kd of 89.2 nM and a koff of 0.000605 s⁻¹.

The next test addresses T1, human CD19 antigen. Nature of the test: SPR (Biacore), antibody captured via Fc. The source holds these as a separate data set. How it is done:
Part of the antibodies in Example 1 were tested for affinity, and the composition of the heavy chain variable regions and the light chain variable regions of the antibodies to be tested are shown in Table 2.
as §1
With B17, the Kd came to 6.39 nM, the koff came out at 0.00116 s⁻¹ and the kon came to 181000 M⁻¹ s⁻¹.
The corresponding values for B18 are 6.93 nM, 0.00124 s⁻¹ and 179000 M⁻¹ s⁻¹.

Source of the values: patent US20230235052A1 (GRACELL BIOTECHNOLOGIES SHANGHAI, published 2023).
